Laboratory results: PMC9213077

Biological target: Fcγ receptors on THP-1 cells (human (endogenous in THP-1)) (UniProt P12314)
Assay: retention of opsonized erythrocytes on adherent THP-1 cells

Chain of UniProt P12314 (P12314 16-374): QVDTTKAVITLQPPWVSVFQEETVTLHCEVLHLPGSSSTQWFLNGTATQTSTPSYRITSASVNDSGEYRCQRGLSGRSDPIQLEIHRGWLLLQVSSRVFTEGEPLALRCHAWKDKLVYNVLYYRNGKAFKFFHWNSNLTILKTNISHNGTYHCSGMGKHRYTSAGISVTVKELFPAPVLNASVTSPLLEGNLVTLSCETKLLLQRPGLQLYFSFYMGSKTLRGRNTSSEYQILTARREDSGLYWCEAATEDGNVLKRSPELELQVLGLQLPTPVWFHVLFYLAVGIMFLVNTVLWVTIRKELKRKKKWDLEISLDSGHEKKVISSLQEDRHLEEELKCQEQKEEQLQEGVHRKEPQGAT

Substance: rabbit antihuman erythrocyte antibody (Rockland; 209-4139), intact IgG
- concentration at which erythrocyte retention occurred: 0.6 µg/mL

Substance: single-cleaved rabbit antihuman erythrocyte IgG generated by imlifidase (antibody)
- concentration at which erythrocyte retention occurred: 5 µg/mL
